{"source": "patent US5935840A", "about": "“Activated recombinant adenovirus proteinases” (priority 1995, dated 1999)", "key": {"[1]": {"target": "T1, Ad2 proteinase (rEP protein) (Human adenovirus C serotype 2, UniProt P03252)", "T1 construct": "Plasmid pT7AD23k6 contains the 204 codons of the Ad2 proteinase reading frame plus a translational termination codon; made in house; host or cells: E. coli BL21(DE3)", "T1 sequence (P03252 whole entry)": "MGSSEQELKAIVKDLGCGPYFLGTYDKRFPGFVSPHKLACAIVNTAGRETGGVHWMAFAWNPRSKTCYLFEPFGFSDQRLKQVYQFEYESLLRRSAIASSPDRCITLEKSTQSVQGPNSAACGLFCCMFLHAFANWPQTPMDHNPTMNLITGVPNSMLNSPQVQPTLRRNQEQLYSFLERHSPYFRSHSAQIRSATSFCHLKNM", "type": "biochemical, human adenovirus type 2", "settings": "1.2 nM rEP protein, 36 nM pVI-c peptide, no DNA, 5 μM substrate, 1 ml", "text": "(§1) The nature of the proteinase cofactor(s) was pursued with the aid of the second assay, which utilizes the substrate (Leu-Arg-Gly-Gly-NH)2 -rhodamine. The design of this substrate was based on two facts. (1) It was known that the proteinase present in disrupted Ad2 virions would cleave small peptides with sequence similar to that found at natural cleavage sites in adenovirus virion precursors (Webster et al., 1989). (2) Cleavage of either tetra-peptide sequence from the substituted rhodamine substrate produces a very large increase, up to a 3500-fold, in fluorescence. Under conditions where only a small fraction of the rhodamine substrate is cleaved, the increase in fluorescence is proportional to the amount of proteinase present and to the time of incubation. Thus, the fluorescence assay provides a quantitative method for assessing proteinase activity that is more sensitive convenient and rapid than the gel electrophoresis assay.\n(§2) After determining the identity of the two cofactors, reconstitution of adenovirus proteinase activity in vitro with purified components was accomplished. […] In (a), Assays in 1 ml contained 1.2 nM rEP protein, 11.9 pM Ad2 DNA and the indicated concentrations of pVI-c peptide. The rate of substrate hydrolysis is the rate in the reaction minus the rate with the rEP protein and Ad2 DNA alone which was 0.068 pmol min^-1. In (b), Assays in 1 ml contained 1.2 nM rEP protein, 36 nM pVI-c peptide and the indicated concentrations of Ad2 DNA. The rate of substrate hydrolysis is the rate in the reaction minus the rate with the rEP protein and pVI-c alone which was 2.76 pmol min^-1. The concentration of (Leu-Arg-Gly-Gly-NH)2 -rhodamine was 5 μM, and its rate of hydrolysis to Leu-Arg-Gly-Gly-NH-rhodamine was determined by measuring the increase in fluorescence every 3 minutes for 15 minutes. The pVI-c peptide was assembled in a peptide synthesizer.\n(§3) Assays were performed in 400 μl of Assay Buffer (50 mM Tris-HCl, pH 7.4, 25 mM NaCl, 10 mM octylglucoside, and 1 mM dithiothreitol). The concentration of the fluorogenic substrate, (Leu-Arg-Gly-Gly-NH)2 -rhodamine was 5 μM. When present, the number of disrupted virus particles was 10^10 and the amount of recombinant proteinase was 0.12 mAU280 nm. […] After 30 minutes at 37° C., a 360 μl aliquot of the reaction was added to 340 μl of Assay Buffer minus octylglucoside, and the increase in fluorescence was measured. The excitation wavelength was 492 nm and the emission wavelength was 523 nm, both with a bandwidth of 5 nm. The change in fluorescence, ΔF, is the magnitude of the fluorescence from the sample minus the magnitude of the fluorescence from an identical solution without enzyme.\n(§4) DNase-treated disrupted virus was obtained by incubating 2×10^10 disrupted virions in 20 μl containing 0.1M NaAc, pH 5.0, 5 mM MgCl2, and 55 μg/ml DNase I for 4 minutes at 25° C. Then, EDTA to 23 mM and dithiothreitol to 2.3 mM were added, and the reactions were heated at 56° C. for 1 minute to inactivate the DNase.\n(§5) For the assays shown in FIG. 8, the DNase reactions were diluted by the addition of 380 μl Assay Buffer containing the substrate, the proteinase and either 2×10^10 molecules of Ad2 DNA (+) or no DNA (-). After 30 minutes at 37° C., 360 μl of the reactions were added to 340 μl Assay Buffer minus octylglucoside and the increase in fluorescence was measured. The assays in (B) and (C) were identical to those in (A) except that in (B) H2ts1 virus was added after the DNase was inactivated (i-DNase) and in (C) no Dnase was present. In (D) recombinant proteinase plus 10^10 molecules of Ad2 DNA were preincubated for 10 minutes at 37° C. before adding substrate.\n(§6) .dagger. All assays contained 8.3 nM rEP protein, 98 nM pVIc peptide, and\n(§7) 1 μM (Leu--Arg--Gly--Gly--NH)2rhodamine. The rate of substrate"}, "[2]": {"target": "T2, recombinant Ad2 proteinase (Human adenovirus C serotype 2, UniProt P03252)", "T2 construct": "also expresses the wild-type 204-amino acid EP polypeptide; made in house; host or cells: E. coli BL21(DE3)", "T2 sequence (P03252 whole entry)": "as above", "test": "Cofactor activity in HEP1DBP cleavage by recombinant Ad2 proteinase", "type": "biochemical, human adenovirus type 2", "settings": "peptide mixed with recombinant Ad2 proteinase and Ad2 DNA", "experimental": "When purified HEP1DBP was incubated with disrupted wild-type adenovirus 2 virions, it was cleaved, as determined from the change in its mobility during SDS-polyacrylamide gel electrophoresis. No cleavage was observed when incubation was with disrupted H2ts1 virions alone.\nTo determine if the Ad12 carboxy-terminal fragment of pVI functioned as the EP co-factor, the corresponding synthetic peptide was mixed with recombinant Ad2 proteinase and Ad2 DNA, and incubated with the HEP1DBP substrate."}, "[3]": {"test": "Stability/sensitivity of the peptide cofactor", "type": "physicochemical", "settings": "boiling for 5 minutes"}, "[4]": {"tested_on": "Ad2 proteinase (rEP protein)", "type": "biochemical, human adenovirus type 2", "settings": "disrupted H2ts1 virus treated with DNase prior to the assay, plus recombinant proteinase", "text": "as §1, §2, §3, §4, §5, §6, §7"}, "[5]": {"tested_on": "Ad2 major core protein precursor, pVII", "test": "Assay of adenovirus proteinase activity in crude extracts: cleavage of [35S]-methionine-labeled pVII (SDS-PAGE, autoradiography)", "type": "biochemical, adenovirus type 2", "settings": "purified from baculovirus-infected Sf9 insect cells"}, "[6]": {"tested_on": "(Leu-Arg-Gly-Gly-NH)2 -rhodamine", "test": "Fluorescence assay of proteinase activity of virus and recombinant proteinase preparations", "type": "biochemical", "settings": "about 5% pure, from Sf9 cells; Ad2 DNA and H2ts1 virions to provide cofactor", "text": "as §1\nas §3, with “The concentration of the fluorogenic substrate, (Leu-Arg-Gly-Gly-NH)2 -rhodamine was 5 μM.” left out\nDisrupted virus was obtained as follows: Twice CsCl-banded virus was dialyzed against 10 mM Tris-HCl, pH 8.0, 1mM EDTA and centrifuged at 100,000×g for 1 hour. The pellet was suspended in 10 mM Tris-HCl, pH 6.8, containing 20% (v/v) glycerol and, after three 10 second bursts of sonication, was stored at -20° C. The fluorogenic substrate was synthesized and purified at BNL by Dr. Walter Mangel, using methods similar to those previously described by Dr. Mangel. These methods are described in two U.S. Patents (U.S. Pat. No. 4,557,862 entitled \"Rhodamine derivatives as fluorogenic substrates for proteinases\" by Mangel, W. F., Leytus, S., and L. Helhado; issued Dec. 10, 1985; U.S. patent application Ser. No. 780,552; \"Novel rhodamine derivatives as fluorogenic substrates\" by Mangel, W. F., Leytus, S., and L. Helhado; filing date Sep. 24, 1985) and in other publications by Mangel and co-workers."}}}
{"substance": "GVQSLHRRRCF [pVI-c peptide]", "values": [{"measurement": "Rate of substrate hydrolysis with the rEP protein and pVI-c alone", "setting": "[1]", "result": 2.76, "unit": "pmol min^-1"}, {"measurement": "Cleavage of the HEP1DBP substrate", "setting": "[2]", "result": "Rapid and complete cleavage"}, {"measurement": "Heat stability of cofactor activity", "setting": "[3]", "result": "did not irreversibly denature"}]}
{"substance": "DNase", "values": [{"measurement": "Proteinase activity lost relative to untreated H2ts1 virus", "setting": "[4]", "result": 94, "unit": "%"}]}
{"substance": "vNPVAd2EP: recombinant Ad2 proteinase expressed in Sf9 insect cells from baculovirus vector vNPVAd2EP", "values": [{"measurement": "Activity in the crude extract assay", "setting": "[5]", "result": "active"}, {"measurement": "Specific activity", "setting": "[6]", "result": "equivalent to that of bacterially-produced proteinase"}]}
